This is an account of results in patent US7026125, “Heterodimers of retinoid X receptors (RXRS) and other steroid hormone receptors” (Ligand Pharmaceuticals).

Data set [1] concerns the target Flag-TRα/RXRα heterodimer (UniProt P10827-2;P19793 P10827-2:1-410,P19793:1-462). The experiment in a line: EMSA; inhibited by anti-Flag. As to conditions: tags: N-terminal Flag on TRα; label: 32P. How it is done:
(b) Effect of anti-Flag-TRα antibody on binding of the slow migrating complex. In vitro synthesized Flag-TRα (F-TRα) protein was incubated with in vitro synthesized RXRα protein in the presence or absence of anti-Flag antibody. The effect of antibody on DNA binding of the slow migrating complex was analyzed as described in FIG. 2a. For control, the receptor mixture was also incubated with preimmune serum (NI). The effect of anti-Flag antibody on DNA binding of Flag-RXRα, RXRα, Flag-TRα, and TRα was also analyzed. For comparison, anti-Flag antibody/Flag-RXRα-TRα interaction was run on the same gel (lanes 7–10).
(§1) In vitro translated receptor protein (1 to 5 μl depending on the translation efficiency) was incubated with the ^32P-labeled oligonucleotides in a 20-μl reaction mixture containing 10 mM hepes buffer, pH 7.9, 50 mM KCl, 1 mM DTT, 2.5 mM MgCl, 10% glycerol, and 1 μg of poly(dI-dC) at 25° C. for 20 minutes. In general, relative low receptor concentration was used to obtain the clear effect of heterodimer formation. The reaction mixture was then loaded on a 5% nondenaturing ployacrylamide gel containing 0.5×TBE (1×TBE=0.089 M Tris-borate, 0.089 M boric acid, and 0.002 M EDTA). […]
A general note: A gel shift assay detects complexes by their altered migration in electrophoresis.

The target of data set [2] is TRβ/RXRα heterodimer (UniProt P10828;P19793 P10828:1-461,P19793:1-462). As to the kind of experiment: EMSA; upshifted complex. As to conditions: label: 32P. The protocol:
(§2) (a) In vitro synthesized TRα, TRβ, RARα, RARβ, RARγ and TRα2 receptor proteins were preincubated either with (+) or without (−) equal amount of in vitro synthesized RXRα protein at room temperature for 10 minutes. Following this preincubation, the reaction mixtures were incubated with ^32p-labelled palindromic TRE (for 1 sequence see FIG. 2a) and analyzed by gel retardation assay as described in Experimental Procedures. […] As a control, equal amounts of TRα and RARα proteins were also mixed and incubated with labelled TRE.
as §1, with “EDTA). To analyze the effect of RXRα or the nuclear proteins on receptor DNA binding activity, RXRα or the cell extracts were preincubated with receptor protein at room temperature for 10 minutes before performing the DNA binding assay.” for “EDTA).”

Data set [3] addresses T1, TRαm3 (UniProt P10827-2 P10827-2:1-167, C-terminal deletion of 243 aa).
T1 sequence: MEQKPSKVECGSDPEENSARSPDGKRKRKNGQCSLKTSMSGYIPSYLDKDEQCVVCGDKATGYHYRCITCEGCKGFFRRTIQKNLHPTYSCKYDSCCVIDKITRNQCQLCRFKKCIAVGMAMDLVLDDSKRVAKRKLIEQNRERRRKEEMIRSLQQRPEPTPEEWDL
As to the kind of experiment: EMSA; several complexes. As to conditions: label: 32P. The protocol: (§3) In vitro translated receptor protein (1 to 5 μl depending on the translation efficiency) was incubated with the ^32P-labeled oligonucleotides in a 20-μl reaction mixture containing 10 mM hepes buffer, pH 7.9, 50 mM KCl, 1 mM DTT, 2.5 mM MgCl, 10% glycerol, and 1 μg of poly(dI-dC) at 25° C. for 20 minutes. In general, relative low receptor concentration was used to obtain the clear effect of heterodimer formation. The reaction mixture was then loaded on a 5% nondenaturing ployacrylamide gel containing 0.5×TBE (1×TBE=0.089 M Tris-borate, 0.089 M boric acid, and 0.002 M EDTA). To analyze the effect of RXRα or the nuclear proteins on receptor DNA binding activity, RXRα or the cell extracts were preincubated with receptor protein at room temperature for 10 minutes before performing the DNA binding assay. When antibody was used, 1 μl of the antiserum was incubated with the specific translation products at room temperature for 45 minutes before performing the experiments described above.

Data set [4] has as its target T2, TRαm2 (UniProt P10827-2 P10827-2:1-213, C-terminal deletion of 197 aa).
T2 sequence: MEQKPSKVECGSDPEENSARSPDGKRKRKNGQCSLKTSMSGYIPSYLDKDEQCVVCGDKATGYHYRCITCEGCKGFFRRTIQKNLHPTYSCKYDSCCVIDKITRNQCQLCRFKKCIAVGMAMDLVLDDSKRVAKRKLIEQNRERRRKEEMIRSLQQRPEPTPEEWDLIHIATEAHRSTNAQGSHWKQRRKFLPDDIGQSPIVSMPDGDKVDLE
The experiment in a line: EMSA; several complexes. The conditions noted are these: label: 32P. The protocol: as §3

For data set [5], the target named is TRα/RXRα heterodimer (UniProt P10827-2;P19793 P10827-2:1-410,P19793:1-462). The experiment in a line: EMSA; at least an order of magnitude more effective than either alone; T3 or RA no clear effect. The conditions noted are these: label: 32P. How it is done:
as §2
as §3, with “When antibody was used, 1 μl of the antiserum was incubated with the specific translation products at room temperature for 45 minutes before performing the experiments described above.” left out

Data set [6] concerns the target T3, RARα (Homo sapiens, UniProt P10276 P10276:1-462).
T3 sequence: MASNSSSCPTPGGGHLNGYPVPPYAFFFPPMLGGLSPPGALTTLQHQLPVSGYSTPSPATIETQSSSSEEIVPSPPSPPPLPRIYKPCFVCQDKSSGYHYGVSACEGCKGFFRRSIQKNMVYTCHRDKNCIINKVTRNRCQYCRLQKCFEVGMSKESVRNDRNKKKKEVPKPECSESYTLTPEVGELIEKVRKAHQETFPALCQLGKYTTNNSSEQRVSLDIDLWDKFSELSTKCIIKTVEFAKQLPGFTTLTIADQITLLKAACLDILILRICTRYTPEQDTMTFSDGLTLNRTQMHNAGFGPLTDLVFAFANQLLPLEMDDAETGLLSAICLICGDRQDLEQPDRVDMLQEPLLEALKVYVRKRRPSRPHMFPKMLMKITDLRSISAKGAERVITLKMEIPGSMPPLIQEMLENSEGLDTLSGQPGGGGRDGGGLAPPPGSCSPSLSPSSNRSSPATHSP
The experiment in a line: EMSA; no detectable complex under conditions used. The conditions noted are these: label: 32P. How it is done:
as §2, §3

Data set [7] addresses T4, RARγ (UniProt P13631 P13631:1-454).
T4 sequence: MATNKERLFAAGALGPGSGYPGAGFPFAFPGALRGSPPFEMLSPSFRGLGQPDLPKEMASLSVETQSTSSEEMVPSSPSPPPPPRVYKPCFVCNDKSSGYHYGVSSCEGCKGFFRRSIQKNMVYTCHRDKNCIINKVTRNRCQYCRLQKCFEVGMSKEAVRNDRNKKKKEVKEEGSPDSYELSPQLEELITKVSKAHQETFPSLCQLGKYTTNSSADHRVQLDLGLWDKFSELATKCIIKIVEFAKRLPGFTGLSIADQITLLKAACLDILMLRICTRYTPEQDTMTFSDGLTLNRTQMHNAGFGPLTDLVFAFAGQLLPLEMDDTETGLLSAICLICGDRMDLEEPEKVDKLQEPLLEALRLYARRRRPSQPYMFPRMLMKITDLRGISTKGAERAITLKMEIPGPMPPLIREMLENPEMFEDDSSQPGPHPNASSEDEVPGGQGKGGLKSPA
As to the kind of experiment: EMSA; no detectable complex under conditions used. The conditions noted are these: label: 32P. The protocol: as §2, §3

Chain of Flag-TRα/RXRα heterodimer (P19793 whole entry, one chain of several): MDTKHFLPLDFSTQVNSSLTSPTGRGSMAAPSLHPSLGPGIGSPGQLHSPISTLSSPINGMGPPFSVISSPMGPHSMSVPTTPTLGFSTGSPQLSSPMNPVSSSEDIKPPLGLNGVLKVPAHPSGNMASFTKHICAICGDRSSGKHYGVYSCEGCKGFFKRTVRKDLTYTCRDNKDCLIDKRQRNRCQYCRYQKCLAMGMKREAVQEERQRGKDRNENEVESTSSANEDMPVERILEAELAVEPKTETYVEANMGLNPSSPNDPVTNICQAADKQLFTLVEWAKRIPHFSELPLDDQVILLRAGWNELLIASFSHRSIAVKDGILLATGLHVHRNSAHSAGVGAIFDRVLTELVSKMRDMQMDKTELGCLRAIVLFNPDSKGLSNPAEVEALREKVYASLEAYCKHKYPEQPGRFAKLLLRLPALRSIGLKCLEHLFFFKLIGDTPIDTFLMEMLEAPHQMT
Chain of TRα/RXRα heterodimer (P19793 whole entry, one chain of several): as above
Chain of TRβ/RXRα heterodimer (P10828 whole entry, chain 1 of 2): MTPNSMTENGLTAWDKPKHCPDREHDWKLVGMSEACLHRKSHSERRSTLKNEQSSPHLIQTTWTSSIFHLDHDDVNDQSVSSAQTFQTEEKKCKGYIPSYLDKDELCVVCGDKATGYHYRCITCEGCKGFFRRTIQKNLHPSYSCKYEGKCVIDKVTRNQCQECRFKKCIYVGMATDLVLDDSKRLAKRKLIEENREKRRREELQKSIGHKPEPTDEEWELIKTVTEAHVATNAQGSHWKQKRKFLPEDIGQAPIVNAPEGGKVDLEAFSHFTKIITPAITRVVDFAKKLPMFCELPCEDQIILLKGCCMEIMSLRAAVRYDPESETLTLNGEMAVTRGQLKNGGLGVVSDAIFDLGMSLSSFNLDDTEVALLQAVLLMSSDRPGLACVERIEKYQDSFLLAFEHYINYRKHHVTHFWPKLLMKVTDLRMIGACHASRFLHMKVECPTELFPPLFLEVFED
Chain of TRβ/RXRα heterodimer (P19793 whole entry, chain 2 of 2): as the sequence (P19793 whole entry, one chain of several) above

B1: palindromic TRE (dsDNA)
DNA 1: GATCTCAGGTCATGACCTGAGATC
DNA 2: GATCTCAGGTCATGACCTGAGATC
Regarding B1, the binding result is “binds” in data set [1]; “binds” in data set [2]; “binds” in data set [3]; “binds” in data set [4]; “binds” in data set [5]; “no binding” in data set [6]. Also, the binding result in data set [7] was “no binding”.
